Data as given in US20070237776A1 (Regeneron, published 2007).

Legend:
[1] = biological target: T1, hIL-18Rα-hFc fusion protein (human, UniProt Q13478 19-329, limits assumed); assay: ELISA solution affinity: antibody premixed with serial dilutions of hIL-18Rα-hFc, free antibody caught on hIL-18Rα-hFc-coated plate
T1 construct: also called IL-18R1-hFc; not shown: human Fc
T1 sequence: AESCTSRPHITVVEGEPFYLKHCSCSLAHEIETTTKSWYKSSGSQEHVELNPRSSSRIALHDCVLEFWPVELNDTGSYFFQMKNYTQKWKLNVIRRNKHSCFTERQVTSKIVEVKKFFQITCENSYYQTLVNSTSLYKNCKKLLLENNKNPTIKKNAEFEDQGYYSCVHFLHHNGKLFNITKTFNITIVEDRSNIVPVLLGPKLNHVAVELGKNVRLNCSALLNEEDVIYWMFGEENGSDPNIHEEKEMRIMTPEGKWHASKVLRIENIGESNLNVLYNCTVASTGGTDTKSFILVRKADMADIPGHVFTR
Protocol: Binding affinity of the antibodies to antigen were also measured using a immunoassay. Antibodies were characterize from hybridoma conditioned medium or as purified protein. Protein was purified after hybridoma cells were grown in low IgG medium and affinity purified using Protein G. IC₅₀ of antigen binding was determined with an ELISA-based assay. Briefly, constant amounts of antibody at different levels, either in hybridoma conditioned medium or purified, were premixed with serial dilutions of antigen protein, hIL-18Rα-hFc, ranging from 0 to 10 mg/ml, and incubated for two hours at room temperature to reach pseudo-binding equilibrium between the antibody and antigen. These solutions were then transferred to 96-well hIL-18Rα-hFc pre-coated plates (solid phase) to allow the free-antibody in the mixtures to bind to plate-coated hIL-18Rα-hFc. […] After washing off excess antibody in solution, the plate-bound antibodies were detected with an HRP-conjugated goat anti-mouse IgG polyclonal antibody reagent and developed using either colorimetric or chemiluminescent substrates. The dependency of the signals on the concentrations of antigen in solution was analyzed with a 4 parameter fit analysis using Prism™ software from Graph Pad™ and reported as IC₅₀ that render 50% reduction of antibody binding to plate-coated antigen.

[2] = biological target: T2, human interleukin-18 receptor alpha (hIL-18Rα) on cells (human, UniProt Q13478 19-541); assay: cell-based or functional assay
T2 sequence: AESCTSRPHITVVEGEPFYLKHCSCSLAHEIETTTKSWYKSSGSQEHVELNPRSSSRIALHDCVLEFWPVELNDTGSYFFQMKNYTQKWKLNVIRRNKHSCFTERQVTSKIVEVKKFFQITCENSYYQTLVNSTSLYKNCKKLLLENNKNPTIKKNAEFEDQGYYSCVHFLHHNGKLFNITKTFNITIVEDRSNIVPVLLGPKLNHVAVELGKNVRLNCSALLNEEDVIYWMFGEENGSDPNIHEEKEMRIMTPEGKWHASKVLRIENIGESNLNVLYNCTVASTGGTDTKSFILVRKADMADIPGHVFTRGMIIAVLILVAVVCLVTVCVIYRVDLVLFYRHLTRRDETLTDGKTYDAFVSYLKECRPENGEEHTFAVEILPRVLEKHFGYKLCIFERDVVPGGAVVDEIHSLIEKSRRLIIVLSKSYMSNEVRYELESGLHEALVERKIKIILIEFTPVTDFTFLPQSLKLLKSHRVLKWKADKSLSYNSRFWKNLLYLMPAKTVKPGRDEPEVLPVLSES

[3] = biological target: T1, hIL-18Rα-hFc fusion protein; assay: SPR (BIAcore), antibody from conditioned medium captured on anti-mouse IgG, hIL-18Rα-hFc in solution
Protocol: The KD of the antigen binding to the selected antibodies described above were determined by surface kinetics on a real-time biosensor surface plasmon resonance assay (BIAcore™). The antibody derived from hybridoma was captured on an anti-mouse IgG surface and exposed to various concentrations of hIL-18Rα-hFc fusion protein. Kinetic analysis using evaluation software was performed to obtain the association and dissociation rate constants.

[4] = biological target: T3, monomeric receptor, hIL18Rα-hIL-18Rb-myc-myc-his (human, UniProt O95256 20-356, limits assumed); assay: SPR (BIAcore), mAb from CHO conditioned medium captured on anti-human IgG, monomeric receptor 50-12.5 nM, 1:1 model
T3 construct: Construct known only by its name; also called monomeric antigen; monomeric hIL-18Rα; not shown: myc-myc-his tag
T3 sequence: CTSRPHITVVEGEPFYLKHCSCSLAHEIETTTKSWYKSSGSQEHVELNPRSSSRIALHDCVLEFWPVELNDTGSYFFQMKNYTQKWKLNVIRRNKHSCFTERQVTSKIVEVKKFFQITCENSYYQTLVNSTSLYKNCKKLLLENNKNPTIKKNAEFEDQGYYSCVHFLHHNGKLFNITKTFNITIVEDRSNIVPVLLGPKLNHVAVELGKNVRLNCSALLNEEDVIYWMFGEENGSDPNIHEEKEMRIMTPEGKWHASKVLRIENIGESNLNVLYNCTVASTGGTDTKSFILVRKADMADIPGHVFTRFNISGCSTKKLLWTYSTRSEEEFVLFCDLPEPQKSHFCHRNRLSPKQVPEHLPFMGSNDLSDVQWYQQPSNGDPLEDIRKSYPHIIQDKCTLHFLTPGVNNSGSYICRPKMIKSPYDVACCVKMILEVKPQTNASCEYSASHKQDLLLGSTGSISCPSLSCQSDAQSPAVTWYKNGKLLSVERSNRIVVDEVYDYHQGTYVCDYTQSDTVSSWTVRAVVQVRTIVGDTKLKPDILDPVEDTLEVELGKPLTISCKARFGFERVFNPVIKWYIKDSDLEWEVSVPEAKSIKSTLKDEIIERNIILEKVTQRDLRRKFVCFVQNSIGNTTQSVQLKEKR
Protocol: (§1) Both mouse IgG1 and human IgG4 versions of the derived antibody were measured to determine KD for monomeric antigen using BIAcore™ (Table 2). Binding affinity of monomeric receptor was measured by capturing mAb from subclone hybridoma supernatant and CHO conditioned media over amine coupled anti-mouse IgG and anti-human IgG. […] Data were processed and analyzed using a 1:1 binding model and KD values were calculated.

[5] = biological target: T3, monomeric receptor, …; assay: SPR (BIAcore), mAb from subclone hybridoma supernatant captured on anti-mouse IgG, monomeric receptor 50-12.5 nM, 1:1 model
Protocol: as §1

B1: VH1F9 (antibody, V domains shown)
VH: QVQLVQSGAEVKKPGASVRVSCKASGYTFTSYDINWVRQATGQGLEYMGWMNPNSGNTGYAQKFQGRVSLTRDTSISTAYMDLNSLRSEDTAVYYCTTPGDKWNYEYFQFWGQGTLVTVSS
VL: DIQMTQSPSSVSASVGDRVTITCRASQHISIWLAWYQQKPGKAPKLLILSASSLLSGVPSRFSGSGSGTDFALTVSSLQPEDFATYYCQQANSFPSFGPGTKVEIK
notes: Hybridoma-derived chimeric IgG: human variable regions, mouse constant regions
[1]
  IC50: 26 pM
[2]
  KG-1 Bioassay (IC50 nM): 0.085 nM
  Luciferase Bioassay (IC50 nM): 0.653 nM
[3]
  Kd: 135 pM

B2: VH1F9-18, human IgG4 (antibody, V domains shown)
VH: B1 VH
VL: B1 VL
notes: Fully human IgG4 version from CHO conditioned medium
[4]
  Kd: 6000 pM

B3: VH1F9-18, mouse IgG1 (antibody, V domains shown)
VH: B1 VH
VL: B1 VL
notes: Chimeric: human variable, mouse IgG1 constant; from subclone hybridoma supernatant; subclone -18 of VH1F9
[5]
  Kd: 6810 pM
